# Laboratory results reported in patent publication US6602687B1, “DNA encoding human ciliary neurotrophic factor and method for producing the protein encoded thereby” (Regeneron Pharmaceuticals, Inc., priority 1989, dated 2003).
# Where “and” joins values, the source holds several entries; their conditions need not be identical. Equal values may be shown once.
# B1: CNTF: ciliary neurotrophic factor; recombinant rat CNTF in Sections 10, 15, 17, purified rat sciatic nerve CNTF in Section 11; see endpoint conditions (protein, UniProt P20294 1-200, looked up)
# Ciliary neurotrophic factor: MAFAEQTPLTLHRRDLCSRSIWLARKIRSDLTALMESYVKHQGLNKNINLDSVDGVPVASTDRWSEMTEAERLQENLQAYRTFQGMLTKLLEDQRVHFTPTEGDFHQAIHTLMLQVSAFAYQLEELMVLLEQKIPENEADGMPATVGDGGLFEKKLWGLKVLQELSQWTVRSIHDLRVISSHQMGISALESHYGAKDKQM
# How the values were obtained:
# [1] = system: E18-19 rat hippocampal neurons; test: Neurofilament protein in hippocampal cultures; type: cell-based
# Procedure: (§1) Hippocampi were dissected from E18-19 rat embryos of Sprague-Dawley rats, and collected in F10 medium. The tissues were minced, rinsed twice with F10 medium (Gibco) and trypsinized with 0.25% trypsin (Gibco) for 20 minutes at 37° C. Trypsin was inactivated by the addition of a serum-containing medium composed of minimal essential medium (MEM) supplemented with fetal calf serum (FCS, 10%), glutamine (2 mM), penicillin (25 U/ml) and streptomycin (25 ug/ml). Dissociated cells obtained by gentle trituration were collected and centrifuged at low speed (500 rpm) for 30 seconds. The centrifugation was repeated twice, and the cell pellets were then resuspended in serum-containing medium. The cells were then plated onto 6 mm wells or 35 mm dishes that were coated with polyornithine (10 ug/ml) and laminin (10 ug/ml). In most of the experiments, the cells were plated at a low density of approximately 71,000 cells/cm^2. Five to six hours following the plating of cells, medium was changed to a serum-free medium containing 1% N3 and penicillin-streptomycin (25 units/ml and 25 ug/ml, respectively), at which time CNTF was added. Medium was changed every three to four days, with re-addition of the factor.
# Neurofilament protein was quantitated according to the method of Doherty et al. (1984, J. Neurochem. 42:1115-1122), as is described in Section 14.1.3.
# (§2) The CNTF used in all assays was recombinant rat CNTF, expressed and purified as described in Example Section 12 supra.
# [2] = system: AchE-containing ventral spinal cord neurons; test: Count of AchE-containing neurons in ventral spinal cord cultures; type: cell-based, rat; details: CNTF 10 ng/ml at plating; 7 days
# Procedure: Sprague-Dawley rats (HSD or Zivic-Miller) were used for all experiments. Pregnant rats (E14) were sacrificed as described in 10.1.1.
# Spinal cords were removed aseptically from rat embryos as described in 10.1.2. The cord tissues were minced into small pieces and incubated in 0.1% trypsin (GIBCO) and 0.01% deoxyribonuclease type 1 (Sigma) at 37° C. for 20 minutes. Trypsin solution was then removed, rinsed and replaced with medium consisting of 45% Eagle's minimum essential medium (MEM), 45% Ham's nutrient mixture F12 (F12), 5% fetal calf serum (GIBCO), 5% horse serum (GIBCO) glutamine (2 mM), penicillin G (0.5 U/ml), and streptomycin (0.5 ug/ml). This was then mechanically dissociated twice by gentle trituration through a Pasteur pipet in the same medium, and the supernatants were pooled and filtered through a nylon filter (Nitex, Tetko; 40 um). Total cell number yielded was determined by hemocytometer counting in the presence of trypan blue. Dissociated ventral cells were then plated at a density of approximately 50,000 cells/cm^2 on dishes coated with poly-L-ornithine (10 ug/ml) and laminin (5 ug/ml). Treatments were given on the day of plating, except for delayed addition experiments in which treatments were given on days 2 or 6. Cultures were maintained at 37° C. in 95% air/5% CO2 atmosphere at nearly 100% relative humidity. Culture medium was changed every 3 to 4 days. […]
# [3] = system: motorneurons in the facial nerve nuclei; test: Unilateral facial nerve lesion in newborn rat with gelfoam implant, motorneuron count; type: in vivo
# Procedure: The facial nerves of newborn rat pups were sectioned unilaterally and small gelfoam implants containing either 5 μg bovine serum albumin or 5 μg CNTF were placed at the lesion sites. […] After one week, the animals were sacrificed and sections of their brainstem, containing a facial nerve nucleus on the same side as the lesioned nerve (ipsilateral to the lesion) and a facial nerve nucleus on the side opposite to the lesion (contralateral to the lesion) were produced. The contralateral facial nucleus served as an internal control. Facial nucleus sections were stained with either Nissl stain (to stain motorneurons) or with antibody to glial fibrillary acidic protein (to detect the respose of glial cells to injury).
# [4] = system: E18-19 rat hippocampal neurons; test: High affinity GABA uptake in hippocampal cultures; type: cell-based
# Procedure: as §1
# To obtain neuron-enriched cultures, cytosine arabinoside (Ara-C, 0.3 uM) was added for a period of 24 hours. Under such condition, the hippocampal cultures contain approximately 5-10% glial cells, as assessed by GFAP immunohistochemistry.
# Uptake of GABA into non-neuronal cells was inhibited by the additional of 2 mM B-alanine, whereas uptake specific for neurons is verified by inhibition with nipecotic acid at 1 mM.
# as §2
# [5] = gelfoam implant impregnated with CNTF, one week
# [6] = gelfoam with 5 μg purified rat sciatic nerve CNTF, one week after lesion
# [7] = single animals, gelfoam with 5 μg purified rat sciatic nerve CNTF, one week after lesion
molecule,measurement,setting,value
B1,"effect on neurofilament protein, CNTF added on the third day and cells treated for 8 days",[1]; CNTF 10 ng/ml,much reduced
same,"CNTF-induced increase in neurofilament protein, addition delayed by 3 days","[1]; CNTF 10 ng/ml, measured on the eighth day",similarly diminished
same,maximal increase in neurofilament protein,"[1]; recombinant rat CNTF 10 ng/ml, day 8",approximately 5 fold
same,concentration at which neurofilament protein reaches a plateau,"[1]; recombinant rat CNTF, 8 days",0.1 ng/mL
same,increase in AchE-positive neurons versus untreated controls,[2],2.5 fold
same,facial nerve motorneurons rescued that would normally have died after axotomy,[3]; CNTF applied to cut stump of newborn rat facial nerve,at least 60%
same,loss of motorneurons ipsilateral to the lesion,[3]; [5],~30%
same,"motorneuron pool ipsilateral to the lesion, of normal",[3]; [5],70%
same,"gliosis in facial nuclei ipsilateral to lesion (anti-GFAP staining), versus BSA treated rats",[3]; gelfoam with 5 μg CNTF,comparable amount of gliosis
same,"Count of motorneurons in the facial nerve nuclei, Contralateral (Control side), group mean (in brackets)",[3]; [6],(3301)
same,"Count of motorneurons in the facial nerve nuclei, Lesion-side, group mean (in brackets)",[3]; [6],(2120)
same,"Count of motorneurons in the facial nerve nuclei, Contralateral (Control side)",[3]; [7],3425 and 2990 and 3490
same,"Count of motorneurons in the facial nerve nuclei, Lesion-side",[3]; [7],2205 and 3445 and 1270 and 3095
same,increase in Gaba uptake at low plating density,"[4]; 71,000 cells/cm2, CNTF 10 ng/ml, 8 days",approximately 2.6 fold
same,increase in Gaba uptake at higher plating density,"[4]; 143,000 cells/cm2, CNTF 10 ng/ml",failed to induce a significant increase
same,concentration of CNTF required for a maximal response in GABA uptake,[4]; AraC-treated neuron-enriched cultures,0.03 ng/mL
same,"increase in Gaba uptake, CNTF added on the third day and cells treated for 8 days",[4]; CNTF 10 ng/ml,failed to induce increase in Gaba uptake
same,"CNTF-induced increase in GABA uptake, addition delayed by one day","[4]; CNTF 10 ng/ml, assayed 7 days later",lowered
same,"CNTF-induced increase in GABA uptake, addition on the third day after plating","[4]; CNTF 10 ng/ml, uptake on the eighth day in culture",no longer produced an increase in GABA uptake
same,increase in Gaba uptake versus untreated controls in AraC-treated cultures,"[4]; neuron-enriched cultures, cytosine arabinoside 0.3 uM for 24 h, 8 days",2.4 fold
same,concentration of CNTF required for a maximal response in GABA uptake,[4]; neuron-glia mixed cultures (−AraC),0.1 ng/mL
same,maximal increase in specific neuronal GABA uptake (dose response),[4]; recombinant rat CNTF 0.1 ng/ml for 8 days,approximately 3 fold
same,maximal increase in specific neuronal GABA uptake versus untreated controls,"[4]; recombinant rat CNTF 10 ng/ml, 8 days after addition, 71,000 cells/cm2",approximately 4 fold
same,concentration at which specific neuronal GABA uptake was increased,"[4]; recombinant rat CNTF, 8 days",0.01 ng/mL
